{"source": "IntAct's records for PubMed 29039417", "parents": {"B1": {"name": "BBSome complex member BBS2 (Homo sapiens), Q9BXC9 (parent)", "chain": "MLLPVFTLKLRHKISPRMVAIGRYDGTHPCLAAATQTGKVFIHNPHTRNQHVSASRVFQSPLESDVSLLSINQAVSCLTAGVLNPELGYDALLVGTQTNLLAYDVYNNSDLFYREVADGANAIVLGTLGDISSPLAIIGGNCALQGFNHEGSDLFWTVTGDNVNSLALCDFDGDGKKELLVGSEDFDIRVFKEDEIVAEMTETEIVTSLCPMYGSRFGYALSNGTVGVYDKTSRYWRIKSKNHAMSIHAFDLNSDGVNELITGWSNGKVDARSDRTGEVIFKDNFSSAIAGVVEGDYRMDGHIQLICCSVDGEIRGYLPGTAEMRGNLMDTSAEQDLIRELSQKKQNLLLELRNYEENAKAELASPLNEADGHRGIIPANTRLHTTLSVSLGNETQTAHTELRISTSNDTIIRAVLIFAEGIFTGESHVVHPSIHNLSSSICIPIVPPKDVPVDLHLKAFVGYRSSTQFHVFESTRQLPRFSMYALTSLDPASEPISYVNFTIAERAQRVVVWLGQNFLLPEDTHIQNAPFQVCFTSLRNGGHLHIKIKLSGEITINTDDIDLAGDIIQSMASFFAIEDLQVEADFPVYFEELRKVLVKVDEYHSVHQKLSADMADHSNLIRSLLVGAEDARLMRDMKTMKSRYMELYDLNRDLLNGYKIRCNNHTELLGNLKAVNQAIQRAGRLRVGKPKNQVITACRDAIRSNNINTLFKIMRVGTASS", "partner": "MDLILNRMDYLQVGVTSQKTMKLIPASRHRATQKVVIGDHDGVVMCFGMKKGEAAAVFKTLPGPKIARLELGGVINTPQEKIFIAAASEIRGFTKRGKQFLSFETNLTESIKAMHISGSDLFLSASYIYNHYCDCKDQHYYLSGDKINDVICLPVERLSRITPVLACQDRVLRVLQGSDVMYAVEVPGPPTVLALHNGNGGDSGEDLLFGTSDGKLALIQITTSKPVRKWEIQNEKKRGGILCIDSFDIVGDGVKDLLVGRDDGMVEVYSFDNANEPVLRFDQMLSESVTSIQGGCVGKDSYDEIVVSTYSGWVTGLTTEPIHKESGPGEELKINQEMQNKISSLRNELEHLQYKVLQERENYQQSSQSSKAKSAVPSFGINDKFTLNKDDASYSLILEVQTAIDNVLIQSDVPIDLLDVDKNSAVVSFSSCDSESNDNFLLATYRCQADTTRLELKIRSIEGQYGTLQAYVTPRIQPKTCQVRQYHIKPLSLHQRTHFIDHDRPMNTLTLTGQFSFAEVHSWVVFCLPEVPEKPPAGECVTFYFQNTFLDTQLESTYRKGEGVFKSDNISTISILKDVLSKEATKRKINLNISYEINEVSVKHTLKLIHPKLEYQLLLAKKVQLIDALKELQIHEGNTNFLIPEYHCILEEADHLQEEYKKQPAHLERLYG"}}}
{"variants_of": "B1", "details": "with BBS7, Q8IWZ6-2"}
{"variant": "L633A", "effect of a mutation on the interaction": "with no effect"}
{"variant": "L633E", "effect of a mutation on the interaction": "with no effect"}
{"variant": "L633K", "effect of a mutation on the interaction": "with no effect"}
{"variant": "M634A", "effect of a mutation on the interaction": "with no effect"}
{"variant": "M634E", "effect of a mutation on the interaction": "with no effect"}
{"variant": "M634K", "effect of a mutation on the interaction": "with no effect"}
{"variant": "R635A", "effect of a mutation on the interaction": "with no effect"}
{"variant": "R635C", "effect of a mutation on the interaction": "disrupting interaction strength"}
{"variant": "R635E", "effect of a mutation on the interaction": "with no effect"}
{"variant": "R635K", "effect of a mutation on the interaction": "with no effect"}
{"variant": "D636A", "effect of a mutation on the interaction": "with no effect"}
{"variant": "D636E", "effect of a mutation on the interaction": "with no effect"}
{"variant": "D636G", "effect of a mutation on the interaction": "disrupting interaction strength"}
{"variant": "D636K", "effect of a mutation on the interaction": "disrupting interaction strength"}
{"variant": "M637A", "effect of a mutation on the interaction": "with no effect"}
{"variant": "M637E", "effect of a mutation on the interaction": "with no effect"}
{"variant": "M637K", "effect of a mutation on the interaction": "with no effect"}
{"variant": "M637S", "effect of a mutation on the interaction": "disrupting interaction strength"}
{"variant": "K638A", "effect of a mutation on the interaction": "with no effect"}
{"variant": "K638E", "effect of a mutation on the interaction": "with no effect"}
{"variant": "T639A", "effect of a mutation on the interaction": "with no effect"}
{"variant": "T639E", "effect of a mutation on the interaction": "with no effect"}
{"variant": "T639K", "effect of a mutation on the interaction": "with no effect"}
{"variant": "M640A", "effect of a mutation on the interaction": "with no effect"}
{"variant": "M640E", "effect of a mutation on the interaction": "with no effect"}
{"variant": "M640K", "effect of a mutation on the interaction": "with no effect"}
{"variant": "K641A", "effect of a mutation on the interaction": "with no effect"}
{"variant": "K641E", "effect of a mutation on the interaction": "with no effect"}
{"variant": "S642A", "effect of a mutation on the interaction": "with no effect"}
{"variant": "S642E", "effect of a mutation on the interaction": "with no effect"}
{"variant": "S642K", "effect of a mutation on the interaction": "with no effect"}
{"variant": "R643A", "effect of a mutation on the interaction": "with no effect"}
{"variant": "R643E", "effect of a mutation on the interaction": "with no effect"}
{"variant": "R643K", "effect of a mutation on the interaction": "with no effect"}
{"variant": "Y644A", "effect of a mutation on the interaction": "with no effect"}
{"variant": "Y644E", "effect of a mutation on the interaction": "disrupting interaction strength"}
{"variant": "Y644K", "effect of a mutation on the interaction": "with no effect"}
{"variant": "M645A", "effect of a mutation on the interaction": "with no effect"}
{"variant": "M645E", "effect of a mutation on the interaction": "with no effect"}
{"variant": "M645K", "effect of a mutation on the interaction": "with no effect"}
{"variant": "E646A", "effect of a mutation on the interaction": "with no effect"}
{"variant": "E646K", "effect of a mutation on the interaction": "with no effect"}
{"variant": "L647A", "effect of a mutation on the interaction": "disrupting interaction strength"}
{"variant": "L647E", "effect of a mutation on the interaction": "disrupting interaction strength"}
{"variant": "L647K", "effect of a mutation on the interaction": "with no effect"}
{"variant": "Y648A", "effect of a mutation on the interaction": "with no effect"}
{"variant": "Y648E", "effect of a mutation on the interaction": "with no effect"}
{"variant": "Y648K", "effect of a mutation on the interaction": "with no effect"}
{"variant": "D649A", "effect of a mutation on the interaction": "with no effect"}
{"variant": "D649E", "effect of a mutation on the interaction": "with no effect"}
{"variant": "D649K", "effect of a mutation on the interaction": "with no effect"}
{"variant": "L650A", "effect of a mutation on the interaction": "with no effect"}
{"variant": "L650E", "effect of a mutation on the interaction": "with no effect"}
{"variant": "L650K", "effect of a mutation on the interaction": "with no effect"}
{"variant": "N651A", "effect of a mutation on the interaction": "with no effect"}
{"variant": "N651E", "effect of a mutation on the interaction": "with no effect"}
{"variant": "N651K", "effect of a mutation on the interaction": "with no effect"}
{"variant": "R652A", "effect of a mutation on the interaction": "with no effect"}
{"variant": "R652E", "effect of a mutation on the interaction": "with no effect"}
{"variant": "R652K", "effect of a mutation on the interaction": "with no effect"}
{"variant": "D653A", "effect of a mutation on the interaction": "with no effect"}
{"variant": "D653E", "effect of a mutation on the interaction": "with no effect"}
{"variant": "D653K", "effect of a mutation on the interaction": "with no effect"}
{"variant": "L654A", "effect of a mutation on the interaction": "with no effect"}
{"variant": "L654E", "effect of a mutation on the interaction": "with no effect"}
{"variant": "L654K", "effect of a mutation on the interaction": "with no effect"}
{"variant": "L655A", "effect of a mutation on the interaction": "with no effect"}
{"variant": "L655E", "effect of a mutation on the interaction": "with no effect"}
{"variant": "L655K", "effect of a mutation on the interaction": "with no effect"}
{"variant": "N656A", "effect of a mutation on the interaction": "with no effect"}
{"variant": "N656E", "effect of a mutation on the interaction": "with no effect"}
{"variant": "N656K", "effect of a mutation on the interaction": "with no effect"}
{"variant": "G657A", "effect of a mutation on the interaction": "with no effect"}
{"variant": "G657E", "effect of a mutation on the interaction": "with no effect"}
{"variant": "G657K", "effect of a mutation on the interaction": "with no effect"}
{"variant": "Y658A", "effect of a mutation on the interaction": "with no effect"}
{"variant": "Y658E", "effect of a mutation on the interaction": "with no effect"}
{"variant": "Y658K", "effect of a mutation on the interaction": "with no effect"}
{"variant": "K659A", "effect of a mutation on the interaction": "with no effect"}
{"variant": "K659E", "effect of a mutation on the interaction": "with no effect"}
{"variant": "I660A", "effect of a mutation on the interaction": "with no effect"}
{"variant": "I660E", "effect of a mutation on the interaction": "with no effect"}
{"variant": "I660K", "effect of a mutation on the interaction": "with no effect"}
{"variant": "R661A", "effect of a mutation on the interaction": "with no effect"}
{"variant": "R661E", "effect of a mutation on the interaction": "with no effect"}
{"variant": "R661K", "effect of a mutation on the interaction": "with no effect"}
{"variant": "C662A", "effect of a mutation on the interaction": "with no effect"}
{"variant": "C662E", "effect of a mutation on the interaction": "with no effect"}
